Results from US20200247894A1 (Regeneron, published 2020).

Columns and labels:
[1] = target: T1, human IL-2Rγ endogenously expressed on NK-92 and Jurkat cells (human, UniProt P31785 23-369); assay: flow cytometry, 10 ug/ml antibody, NK-92 cells (endogenous human IL-2Rg)
T1 construct: whole, on cells; on cells it stands with the other receptor subunits of the cell line; also called IL-2Rg; CD132
T1 sequence (looked up): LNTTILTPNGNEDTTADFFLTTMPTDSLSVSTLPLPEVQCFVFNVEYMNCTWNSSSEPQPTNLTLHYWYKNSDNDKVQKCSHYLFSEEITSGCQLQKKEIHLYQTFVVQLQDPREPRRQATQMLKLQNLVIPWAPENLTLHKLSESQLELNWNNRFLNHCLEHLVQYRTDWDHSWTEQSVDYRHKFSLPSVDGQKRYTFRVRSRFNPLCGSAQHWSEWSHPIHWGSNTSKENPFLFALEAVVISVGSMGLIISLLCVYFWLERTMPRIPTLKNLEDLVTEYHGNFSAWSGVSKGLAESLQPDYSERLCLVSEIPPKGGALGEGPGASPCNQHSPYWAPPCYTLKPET
Description: (§1) For flow cytometry analyses, the cells were pre-incubated with mouse IgG at 100 μg/ml for 15 minutes at room temperature (RT) to block the binding of the antibodies to Fc receptors. […] Cells were washed, fixed using BD CytoFix™ (BD biosciences, #554655) and analyzed on an IQue® (Intellicyt®) Flow Cytometer or Accuri Flow cytometer (BD). […] The results were analyzed using ForeCyt® (IntelliCyt®) software to determine the geometric means of fluorescence (MFI) for viable cells. Binding ratios were calculated by normalizing the MFI of the test sample by the MFI of the unstained sample.

[2] = target: T2, human IL2Rγ (endogenously expressed on cells) (human, UniProt P31785 23-369); assay: cell-based or functional assay
T2 sequence (looked up): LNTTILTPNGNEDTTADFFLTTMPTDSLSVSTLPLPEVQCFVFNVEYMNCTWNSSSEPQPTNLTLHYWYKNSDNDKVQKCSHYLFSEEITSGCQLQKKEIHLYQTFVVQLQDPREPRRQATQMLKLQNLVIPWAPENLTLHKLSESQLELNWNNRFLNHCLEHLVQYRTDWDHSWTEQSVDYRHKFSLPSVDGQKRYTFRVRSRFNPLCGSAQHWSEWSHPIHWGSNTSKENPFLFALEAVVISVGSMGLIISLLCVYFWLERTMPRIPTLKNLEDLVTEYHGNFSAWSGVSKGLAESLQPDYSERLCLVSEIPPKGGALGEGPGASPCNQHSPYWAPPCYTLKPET

[3] = target: T3, D1 domain of human IL-2Rγ extracellular domain expressed with a C-terminal myc-myc-hexahistidine tag (human); assay: SPR, mAb captured on anti-hFc, 37 C
T3 construct: also called human IL2Rγ domain 1
T3 chain: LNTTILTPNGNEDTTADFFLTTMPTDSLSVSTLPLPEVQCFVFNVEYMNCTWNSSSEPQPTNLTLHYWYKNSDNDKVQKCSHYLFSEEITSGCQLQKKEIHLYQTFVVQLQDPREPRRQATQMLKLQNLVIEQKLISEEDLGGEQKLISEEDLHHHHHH
Description: (§2) Equilibrium dissociation constants (KD values) for IL-2Rγ binding to purified anti-IL2Rγ monoclonal antibodies were determined using a Biacore 4000 instrument equipped with a real-time surface plasmon resonance biosensor. All binding studies were performed in 10 mM HEPES, 150 mM NaCl, 3 mM EDTA, and 0.05% v/v Surfactant Tween-20, pH 7.4 (HBS-ET) running buffer at 25° C. and 37° C. The Biacore sensor surface was first derivatized by amine coupling with a monoclonal mouse anti-human Fc antibody (GE, # BR-1008-39) to capture anti-IL2Rγ monoclonal antibodies.
(§3) The dissociation of monoclonal antibody bound IL2Rγ reagents were monitored for 8-10 minutes in HBS-ET running buffer. Kinetic association (kₐ) and dissociation (kd) rate constants were determined by fitting the real-time sensorgrams to a 1:1 binding model using Scrubber 2.0c curve fitting software. Binding dissociation equilibrium constants (KD) and dissociative half-lives (t_{1/2}) were calculated from the kinetic rate constants as: […]

[4] = target: T3, D1 domain of human IL-2Rγ extracellular …; assay: SPR, mAb captured on anti-hFc, 25 C
Description: as §2, §3

[5] = target: T4, Mouse IL2Rγ extracellular domain expressed with a C-terminal myc-myc-hexahistidine tag (mouse); assay: SPR Biacore 4000, anti-hFc-captured mAb, 37 C
T4 construct: whole entry is the tagged construct; also called mIL-2Rg-MMH
T4 chain: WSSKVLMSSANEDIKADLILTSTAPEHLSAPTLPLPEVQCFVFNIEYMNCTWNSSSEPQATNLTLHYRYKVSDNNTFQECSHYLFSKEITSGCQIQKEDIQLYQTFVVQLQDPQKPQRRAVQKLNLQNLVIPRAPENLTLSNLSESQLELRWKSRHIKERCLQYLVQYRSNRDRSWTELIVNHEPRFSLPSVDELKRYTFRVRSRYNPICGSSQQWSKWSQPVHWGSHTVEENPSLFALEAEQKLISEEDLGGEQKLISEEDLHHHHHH
Description: as §2, §3

[6] = target: T5, Rat IL2Rγ extracellular domain expressed with a C-terminal myc-myc-hexahistidine tag (rat); assay: SPR Biacore 4000, anti-hFc-captured mAb, 37 C
T5 construct: whole entry is the tagged construct; also called rIL-2Rg-MMH; rat IL-2Rg-MMH
T5 chain: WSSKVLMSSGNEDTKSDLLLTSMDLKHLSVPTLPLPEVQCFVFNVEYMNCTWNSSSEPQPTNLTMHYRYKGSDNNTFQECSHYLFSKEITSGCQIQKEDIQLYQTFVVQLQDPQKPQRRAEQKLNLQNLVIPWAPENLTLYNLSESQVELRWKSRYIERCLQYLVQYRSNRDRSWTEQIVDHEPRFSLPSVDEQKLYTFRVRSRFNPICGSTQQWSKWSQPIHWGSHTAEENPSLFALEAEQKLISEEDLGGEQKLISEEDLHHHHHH
Description: as §2, §3

[7] = target: T4, Mouse IL2Rγ extracellular domain …; assay: SPR Biacore 4000, anti-hFc-captured mAb, 25 C
Description: as §2, §3

[8] = target: T5, Rat IL2Rγ extracellular domain …; assay: SPR Biacore 4000, anti-hFc-captured mAb, 25 C
Description: as §2, §3

[9] = target: T6, mouse IL-2Rγ endogenously expressed on MC/9 cells (mouse, UniProt P34902 23-369); assay: flow cytometry, 10 ug/ml antibody, MC/9 cells (endogenous mouse IL-2Rg)
T6 construct: whole, on cells
T6 sequence (looked up): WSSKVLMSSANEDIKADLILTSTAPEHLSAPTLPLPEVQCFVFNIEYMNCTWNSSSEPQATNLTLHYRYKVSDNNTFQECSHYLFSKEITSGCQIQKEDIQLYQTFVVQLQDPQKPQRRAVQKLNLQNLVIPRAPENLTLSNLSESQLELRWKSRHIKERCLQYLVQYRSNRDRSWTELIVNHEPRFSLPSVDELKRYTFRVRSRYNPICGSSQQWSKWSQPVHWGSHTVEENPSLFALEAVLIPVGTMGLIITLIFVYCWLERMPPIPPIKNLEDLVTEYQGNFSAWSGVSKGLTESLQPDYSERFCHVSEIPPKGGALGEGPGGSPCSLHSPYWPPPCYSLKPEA
Description: as §1

B1: H4H13545P2 (antibody, human IgG4 S228P, kappa, V domains shown)
VH: QVQLQQSGPGLVKPSQTLSLTCDISGDSVSSNIATWNWIRQSPSRGLEWLGRTYYRSKWYKDYAVSVKSRITINPDTSKNQFSLQVNSVTPEDTAVYYCARMTGPRYYFEYWGQGTLVTVSS
VL: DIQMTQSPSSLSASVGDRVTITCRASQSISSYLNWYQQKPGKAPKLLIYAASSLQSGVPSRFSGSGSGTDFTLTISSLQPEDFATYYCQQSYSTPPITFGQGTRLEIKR
notes: fully human anti-IL2Rg antibody, human IgG4
Binding Ratio (Sample over unstained MFIs) [1]: 3
Raw MFI [1]: 592 MFI

B2: H4H12857P (antibody, human IgG4 S228P, kappa, V domains shown)
VH: EVQLVESGGGVVRPGGSLRLSCAASGFTFDDFDMSWVRQGPGKGLEWVSGINWHGSSTGYADSVKGRFTISRDNAKNSLYLQMSSLRAEDTALYHCVRGGTIVGATTPLDYWGQGTLVTVSS
VL: DIQMTQSPSSLSASVGDRVTMTCRASRTISSYLSWYQQKSGKVPNLLIFGASSLQSGVPSRFSASGSGTDFTLIISSLQPEDFATYYCQQSYSSPLTFGGGTKVEIKR
notes: human IgG4; also called REGN9432
IC50; IL-2 30 pM; NK92/hIL7R/STAT3-luc [2]: > 1e-07 M
IC50; IL-4 250 pM; Ramos.2G6.4C10/STAT3-luc [2]: 3.8e-08 M
IC50; IL-7 50 pM; NK92/hIL7R/STAT3-luc [2]: 1.6e-08 M
IC50; IL-9 20 pM; NK92/hIL7R/STAT3-luc [2]: > 1e-07 M
IC50; IL-15 60 pM; NK92/hIL7R/STAT3-luc [2]: > 1e-07 M
Max Inhibition (%); IL-2 30 pM; NK92/hIL7R/STAT3-luc [2]: 44%
Max Inhibition (%); IL-4 250 pM; Ramos.2G6.4C10/STAT3-luc [2]: 96%
Max Inhibition (%); IL-7 50 pM; NK92/hIL7R/STAT3-luc [2]: 94%
Max Inhibition (%); IL-9 20 pM; NK92/hIL7R/STAT3-luc [2]: 83%
Max Inhibition (%); IL-15 60 pM; NK92/hIL7R/STAT3-luc [2]: 78%
100 nM Ag Bound [3]: 1 RU
binding result [3]: no binding (tested: 100 nM)
100 nM Ag Bound [4]: 0 RU

B3: H4H12857P (antibody, human IgG4 S228P, kappa, V domains shown)
VH: EVQLVESGGGVVRPGGSLRLSCAASGFTFDDFDMSWVRQGPGKGLEWVSGINWHGSSTGYADSVKGRFTISRDNAKNSLYLQMSSLRAEDTALYHCVRGGTIVGATTPLDYWGQGTLVTVSS
VL: DIQMTQSPSSLSASVGDRVTMTCRASRTISSYLSWYQQKSGKVPNLLIFGASSLQSGVPSRFSASGSGTDFTLIISSLQPEDFATYYCQQSYSSPLTFGGGTKVEIKR
notes: fully human anti-IL2Rgamma mAb, human IgG4 Fc; also called REGN9432
100 nM Ag Bound [5]: 1 RU
100 nM Ag Bound [6]: 1 RU
100 nM Ag Bound [7]: 5 RU
binding result [7]: no binding (tested: 100 nM)
100 nM Ag Bound [8]: 1 RU
binding result [8]: no binding (tested: 100 nM)

B4: H4H12857P (antibody, human IgG4 S228P, kappa, V domains shown)
VH: EVQLVESGGGVVRPGGSLRLSCAASGFTFDDFDMSWVRQGPGKGLEWVSGINWHGSSTGYADSVKGRFTISRDNAKNSLYLQMSSLRAEDTALYHCVRGGTIVGATTPLDYWGQGTLVTVSS
VL: DIQMTQSPSSLSASVGDRVTMTCRASRTISSYLSWYQQKSGKVPNLLIFGASSLQSGVPSRFSASGSGTDFTLIISSLQPEDFATYYCQQSYSSPLTFGGGTKVEIKR
notes: fully human anti-IL2Rg antibody, human IgG4; also called REGN9432
Binding Ratio (Sample over unstained MFIs) [9]: 1
Raw MFI [9]: 198 MFI

B5: H4H13544P2 (antibody, human IgG4 S228P, kappa, V domains shown)
VH: QLQLQESGPGLVKPSETLSLTCTVSGGSISIKNYYWGWIRQPPGKGLEWIGSIYYSGTTYYNPSLKSRVTISVDTSKNQFSLKLSSVTAADTAVYHCARHGYSYGHGWFDPWGQGTLVTVSS
VL: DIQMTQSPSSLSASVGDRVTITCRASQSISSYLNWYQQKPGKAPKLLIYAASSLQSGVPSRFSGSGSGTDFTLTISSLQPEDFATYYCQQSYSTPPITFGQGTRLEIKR
notes: as for B1
Binding Ratio (Sample over unstained MFIs) [1]: 24
Raw MFI [1]: 4650 MFI
